This data set deals with the molecule itself. Put plainly: cryo-EM structure.

B1: mouse TRPC5 with a 210-amino-acid C-terminal truncation, with N-terminal 3xFlag tag and MBP (recombinant plasmid FMC5) (domain or fragment, UniProt Q9QX29 1-765, looked up)
chain: MAQLYYKKVNYSPYRDRIPLQIVRAETELSAEEKAFLSAVEKGDYATVKQALQEAEIYYNVNINCMDPLGRSALLIAIENENLEIMELLLNHSVYVGDALLYAIRKEVVGAVELLLSYRKPSGEKQVPTLMMDTQFSEFTPDITPIMLAAHTNNYEIIKLLVQKRVTIPRPHQIRCNCVECVSSSEVDSLRHSRSRLNIYKALASPSLIALSSEDPILTAFRLGWELKELSKVENEFKAEYEELSQQCKLFAKDLLDQARSSRELEIILNHRDDHSEELDPQKYHDLAKLKVAIKYHQKEFVAQPNCQQLLATLWYDGFPGWRRKHWVVKLLTCMTIGFLFPMLSIAYLISPRSNLGLFIKKPFIKFICHTASYLTFLFMLLLASQHIVRTDLHVQGPPPTVVEWMILPWVLGFIWGEIKEMWDGGFTEYIHDWWNLMDFAMNSLYLATISLKIVAYVKYNGSRPREEWEMWHPTLIAEALFAISNILSSLRLISLFTANSHLGPLQISLGRMLLDILKFLFIYCLVLLAFANGLNQLYFYYETRAIDEPNNCKGIRCEKQNNAFSTLFETLQSLFWSVFGLLNLYVTNVKARHEFTEFVGATMFGTYNVISLVVLLNMLIAMMNNSYQLIADHADIEWKFARTKLWMSYFDEGGTLPPPFNIIPSPKSFLYLGNWFNNTFCPKRDPDGRRRRHNLRSFTERHADSLIQNQHYQEVIRNLVKRYVAAMIRNSKTNEGLTEENFKELKQDISSFRYEVLDLLGNRK
In the case of B1, the binding result is “binds”.
